The supplement of paper PMC9732359
± gives the uncertainty stated by the source.

Test: protein stability index of a GFP-peptide fusion (yeast GPS) (PSI 1-4); higher = more stable; sorted into four equal gates, so the index is relative within each strain
In short: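 Tiled 17-residue peptides from yeast proteins were fused downstream of GFP on a plasmid that also expresses Cherry, and the pooled library was carried in yeast. Mid-log cultures grown in leucine-free medium were sorted into four equal gates by GFP/Cherry fluorescence ratio. Plasmids from each gate were PCR-amplified and Illumina-sequenced, and reads were assigned to strains by barcodes. Each peptide's protein stability index is the sum, over gates, of the gate's read frequency multiplied by its gate number.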

Sequence	protein stability index (doa10∆)	protein stability index (pdr5∆)	protein stability index (san1∆)	protein stability index (ubr1∆)
DSLKLNSKPVELKPVSL [YJL041W/NSP1]	2.9 ± 0.082	2.79 ± 0.07	2.49 ± 0.097	2.63 ± 0.1
HYGLAVDIYTHFTSPIR [DIS3]	1.56 ± 0.042	1.86 ± 0.052	1.61 ± 0.064	1.84 ± 0.039
IIMQADLALKMGVPIYG [FAS2]	1.63 ± 0.12	2.04 ± 0.068	1.79 ± 0.069	2.11 ± 0.044
IRARIPFYGSYTETDPA [SRP54]	2.96 ± 0.092	2.91 ± 0.082	2.98 ± 0.06	2.96 ± 0.076
KLIAAAEDGSRSTKDMI [SNF6]	3.54 ± 0.15	3.69 ± 0.23	3.44 ± 0.14	3.54 ± 0.087
LTLKHRQNKVQHQRIVA [RPN10]	1.54 ± 0.071	1.97 ± 0.11	2.9 ± 0.25	1.84 ± 0.12
GGNSTQNTSNMNAGGLF [YGR119C/NUP57]	3.26 ± 0.093	3.15 ± 0.06	3.04 ± 0.055	3.19 ± 0.081
NWAKFTATASLGVIHKG [RPN2]	1.81 ± 0.06	1.81 ± 0.053	1.91 ± 0.069	2 ± 0.061
KQFFQMTPLLVNCLELL [PCI8]	1.4 ± 0.034	1.32 ± 0.034	1.26 ± 0.067	1.23 ± 0.025
ASKLAAYNKKSTISARE [HTB1]	3.22 ± 0.12	–	–	3.21 ± 0.11
FGGSQPNSGTATTGGFG [YGR119C/NUP57]	2.98 ± 0.2	3.05 ± 0.12	3.15 ± 0.18	3.4 ± 0.2
VAHSSRLANLIDYKLRV [SMB1]	3.58 ± 0.15	3.26 ± 0.15	2.5 ± 0.2	3.17 ± 0.066
KPLKKGSADIGASVISL [SIR4]	3.09 ± 0.068	3.14 ± 0.055	3.05 ± 0.038	3.06 ± 0.04
AAKEGLALSSNISRDFQ [COR1]	2.71 ± 0.089	3.08 ± 0.071	3.13 ± 0.079	2.76 ± 0.096
NNKFANKIIPNVGLCIT [RPC25]	2.71 ± 0.07	3.04 ± 0.082	2.94 ± 0.054	3 ± 0.081
NGDEGDDENEPKRKRRL [YOR098C/NUP1]	3.38 ± 0.11	3.24 ± 0.14	3.17 ± 0.083	3.06 ± 0.071
RLKVFEGIPPPYDKKKR [RPL16A]	2.99 ± 0.087	2.9 ± 0.094	3.05 ± 0.065	2.97 ± 0.08
DGSAIEDDDIRSRMLPT [SNF5]	3.19 ± 0.086	3.03 ± 0.11	3.46 ± 0.12	3.34 ± 0.057
ASYAKIEIKISDPLTVF [SNU114]	1.21 ± 0.15	2.66 ± 0.25	–	1.45 ± 0.089
QAQLRIDDKTQNDELTM [DIS3]	2.42 ± 0.085	2.6 ± 0.07	2.5 ± 0.073	2.62 ± 0.088
ESTAGSASTSATGISGS [ECM29]	3.31 ± 0.046	3.35 ± 0.053	3.12 ± 0.035	3.277 ± 0.032
HVLNKVTLASILTTAVG [RPN1]	1.72 ± 0.14	1.41 ± 0.079	1.46 ± 0.21	1.31 ± 0.19
VDPASAPNHSPEIDNLD [RRP6]	3.1 ± 0.11	2.98 ± 0.074	3.25 ± 0.072	3.16 ± 0.059
GAGSAFGFSSSGTAATG [YOR098C/NUP1]	3.47 ± 0.2	3.41 ± 0.15	3.41 ± 0.17	3.57 ± 0.14
GFGLVYNSVAEAKKFEP [RPS24A]	3.22 ± 0.1	3.47 ± 0.13	2.87 ± 0.1	2.8 ± 0.14
DLKKKLNSLKDERSQGE [SMC4]	3.43 ± 0.14	3.16 ± 0.25	3.06 ± 0.16	3.71 ± 0.25
LNLKFKEKWPSLELQSF [YML103C/NUP188]	2.72 ± 0.097	2.54 ± 0.14	1.92 ± 0.11	2.05 ± 0.19
